{
  "source": "paper PMC11375011",
  "about": "“Inducible auto-phosphorylation regulates a widespread family of nucleotidyltransferase toxins” (Nature Communications, 2024)",
  "biological_target": "MenA1",
  "conditions": "sites T39",
  "note": "“Also recorded” adds a separate entry of the source.",
  "data": [
    {"substance": "MenT1", "values": [
      {"measurement": "other: observed/calculated Stokes radius ratio against the heterotrimer", "value": "weaker; reference 0.97; also recorded: same; reference 0.97"}
    ]}
  ]
}
